Source: PMC3317979

Assays:
[1] = system: 933W repressor (cI) (bacteriophage 933W (lambdoid prophage of E. coli O157:H7 EDL933)); experiment: EMSA
[2] = system: 933W repressor (cI) (bacteriophage 933W (lambdoid prophage of E. coli O157:H7 EDL933)); experiment: competition EMSA
[3] = system: 933W repressor S41A (bacteriophage 933W (lambdoid prophage of E. coli O157:H7 EDL933)); experiment: EMSA
[4] = system: 933W repressor K46A (bacteriophage 933W (lambdoid prophage of E. coli O157:H7 EDL933)); experiment: EMSA
[5] = system: 933W repressor (cI) (bacteriophage 933W (lambdoid prophage of E. coli O157:H7 EDL933)); experiment: EMSA (direct and competition)
[6] = scale: fold affinity vs S41A on consensus

## 933W OR1
[1]
  binding signal (fold higher affinity than consensus): 10

## consensus 6C (symmetric T-A to C-G)
[2]
  binding signal (fold higher affinity than consensus): > 2.5

## consensus 8G (central A-T to G-C)
[2]
  binding signal (fold lower affinity than consensus): 3

## consensus 3C (symmetric A-T to C-G)
[2]
  binding signal (fold lower affinity than consensus): > 6

## consensus 3G (symmetric A-T to G-C)
[2]
  binding signal (fold lower affinity than consensus): 2

## consensus 5 C-C7G in one half-site
[1]; 7-deazaguanine replaces G at position 5
  binding signal (fold lower affinity than consensus): > 5

## consensus 4 G-C in one half-site
[1]
  binding signal (fold lower affinity than consensus): > 5

## consensus 2A (symmetric, G-C to A-T)
[3]; [6]
  binding signal: 1
[2]
  binding signal (fold lower affinity than consensus): > 6

## nonspecific DNA (NS)
[4]
  Kd: 6.1 µM
[2]
  Kd: 6.1 µM

## consensus 1A (symmetric C-G to A-T)
[2]
  binding signal (fold change in affinity vs consensus): < 2

## consensus 2T (symmetric, G-C to T-A)
[3]; [6]
  binding signal: 1
[2]
  binding signal (fold lower affinity than consensus): > 6

## 933W consensus operator
[4]
  Kd: 6.1 µM
[3]; scale: fold lower affinity than wild-type repressor
  binding signal: > 10
[5]
  Kd: 0.0048 µM

## consensus 7'A (C-G to A-T at 7' only)
[2]
  binding signal (fold higher affinity than consensus): > 4

## consensus 4 G-5meC in one half-site
[1]; 5-methylcytosine paired with G at position 4
  binding signal (fold affinity vs consensus (identical)): 1

## consensus 3T (symmetric A-T to T-A)
[2]
  binding signal (fold higher affinity than consensus): > 3
